The source of these data is patent publication US20250027068.

B1: PRT-635 (protein)
chain: MQITSVWTKGVTPLTPDQFTNQGEDVIHAPYTPNQGWYDITKAFDGKDNLLCGAATAGNMLHWWFDQNKTEIEAYLSKHPEKQKIIFNNQELFDLKAAIDTKDSQTNSQLFNYFRDKAFPNLSARQLGVMPDLVLDMFINGYYLNVFKTQSTDVNRPYQDKDKRGGIFDAVFTRGDQTTLLTARHDLKNKGLNDISTIIKQELTEGKALALSHTYANVSISHVINLWGADFNAEGNLEAIYVTDSDANASIGMKKYFVGINAHGHVAISAKKIEGENIGAQVLGLFTLSSGKDIWQKLSLEHHHHHH
B2: PRT-463 (protein)
chain: MVTSVWTKGVTPPANFRKIVDGNIAYYHAPYVANQGWYDITKTFNGKDDLLCGAATAGNMLHWWFDQNKDQIERYLKEHPEKQKINFNGEQMFDVKEAIDTKDSQTDSKLFEYFKEKAFPYLSTKHLGVFPDHVLDMFINGYRLSLTNHGPTPVKEGSKDPRGGIFDAVFTRGDQSKLLTSRHDLKNKTLKEISDLIKQELTEGKALGLSHTYANVRINHVINLWGADFDSEGNLKAIYVTDSDSNASIGMKKYFVGVNSAGKVAISAKEIKEDNIGAQVLGLFTLSTGQDIWNQTNLEHHHHHH
B3: PRT-461 (protein)
chain: B2 chain with A14T, N15D, V32K, N34G, L185F, N187E
B4: PRT-490 (protein)
chain: MVTSVWTKGVTPPTDFIYGEDVLHAPYKAGQGWYDITKTFNGKDNLLCGAATAGNMLHWWFDQNKEQIENYLKKHPEKQKIIFNNQELFDLKAAIDTKDSQLDSKLFEYFKEKAFPYLSTKHLGVFPDHVIDMFINGYRLSLTNHGPTPVKRGSKDKRGGIFDAVFTRGVQSKLLTNRHDFKEKTLKEISDLIKQELTEGKALGISHTYANVRINHVINLWGADFDAEGNLEAIYVTDSDTNASIGMKKYFVGVNSNGKVAISAKEIEEDNIGAQVLGLFTLSTGQDIWNQTNLEHHHHHH
B5: PRT-449 (protein)
chain: MVTSVWTKGVTPPTDFRKIVDGNIAYYHAPYKAGQGWYDITKTFNGKDDLLCGAATAGNMLHWWFDQNKDQIEAYLKEHPEKQKINFNGEQMFDVKEAIDTKDDQTNSKLFEYFKEKAFPYLSTKHLGVFPDHVLDMFINGYRLSLTNHGPTPVKEGSKDPRGGIFDAVFTRGDQSKLLTSRHDFKEKTLKEISDLIKQELTEGKALALSHTYANVRINHVINLWGADFDSNGNLEAIYVTDSDSNASIGMKKYFVGVNSAGKVAISAKEIEDDNIGAQVLGLFTLSTGQDIWNQTNLEHHHHHH
B6: PRT-457 (protein)
chain: MVTSVWTKGVTPPTDFIKGEDVFHAPYKAGQGWYDITKAFDGGDDLLCGAATAGNMLHWWFDQNKDQIEAYLKEHPEKQKINFNGEQMFDVKEAIDTKDDQTNSELFNYFKEKAFPYLSTKHLGVFPDHVLDMFINGYRLSLTNHGPTPVKRQEKDPRGGIFDAVFGRGDQTKLLTSRHDLKNKTLKEISDLIKQELTEGKALALSHTYANVRINHVINLWGADFDSNGNLEAIYVTDSDSNASIGMKKYFVGVNSAGKVAISAKEIEDDNIGAQVLGLFTLSTGQKIWNKTNLEHHHHHH
B7: PRT-469 (protein)
chain: B6 chain with A70R, D100S, A204G, N228E, E232K, E268K, D269E
B8: PRT-497 (protein)
chain: MVTSVWTKGVTPPTDFRKIVDGNIAYYHAPYKAGQGWYDITKTFNGKDDLLCGAATAGNMLHWWFDQNKEYIEAYLKKHPEKQKIMFGDQELLDVRKAINTKGSQKNSELFNYFRDKAFPNLSARRLGVMPDLVLDMFINGYYLNVTKTQTTDVNRTYQEKDKRGGIFDAVFTRGDQSKLLTSRHDFKEKGLKEISDLIKQELTEGKALGLSHTYANVRINHVINLWGADFDSDGNLKAIYVTDSDSNASIGMKKYFVGVNSAGKVAISAKEIKEDNIGAQVLGLFTLSTGQDIWNQTNLEHHHHHH
B9: PRT-495 (protein)
chain: MVTSVWTKGVTPPTDFIKGEDVFHAPYKAGQGWYDITKAFDGGDDLLCGAATAGNMLHWWFDQNKEYIEAYLKKHPEKQKIMFGDQELLDVRKAINTKGSQKNSELFNYFRDKAFPNLSARRLGVMPDLVLDMFINGYYLNVTKTQTTDVNRTYQEKDKRGGIFDAVFTRGDQSKLLTSRHDFKEKGLKEISDLIKQELTEGKALGLSHTYANVRINHVINLWGADFDSDGNLKAIYVTDSDSNASIGMKKYFVGVNSAGKVAISAKEIKEDNIGAQVLGLFTLSTGQDIWNQTNLEHHHHHH
B10: PRT-475 (protein)
chain: MVTSVWTKGVTPPTNFRKIVDGNIAYYHAPYVANQGWYDITKTFNGKDDLLCGAATAGNMLHWWFDQNKEQIENYLKKHPEKQKINFNGEQMFDVKEAIDTKDSQLDSKLFEYFKEKAFPYLSTKHLGVFPDHVIDMFINGYRLSLTNHGPTPVKRGSKDPRGGIFDAVFTRGDQSKLLTNRHDLKNKTLKEISDLIKQELTEGKALGISHTYANVRINHVINLWGADFDAEGNLEAIYVTDSDSNASIGMKKYFVGVNSNGKVAISAKEIEEDNIGAQVLGLFTLSTGQDIWNQTNLEHHHHHH
B11: PRT-465 (protein)
chain: MVTSVWTKGVTPPANFTQGEDVFHAPYVANQGWYDITKTFNGKDDLLCGAATAGNMLHWWFDQNKDQIERYLKEHPEKQKINFNGEQMFDVKEAIDTKDSQTDSKLFEYFKEKAFPYLSTKHLGVFPDHVLDMFINGYRLSLTNHGPTPVKEGSKDPRGGIFDAVFTRGDQSKLLTSRHDLKNKTLKEISDLIKQELTEGKALGLSHTYANVRINHVINLWGADFDSEGNLKAIYVTDSDSNASIGMKKYFVGVNSAGKVAISAKEIKEDNIGAQVLGLFTLSTGQDIWNQTNLEHHHHHH
B12: PRT-509 (protein)
chain: MITSVWTKGVTPPTDFRKIVDGNIAYYHAPYKAGQGWYDITKTFNGKDDLLCGAATAGNMLHWWFDQNKEEIEAYLKKHPEKQKIMFGDQELLDVRKVINTKDSQTNSALFNYFKDKAFPNLSARRLGVMPDLVLDMFINGYYLNVYKTQTTDVNRTYQTKDRRGGIFDAVFTRGDQSKLLTERHDFKEKTLKEISDLIKQELTEGKALGLSHTYANVRINHVINLWGADFDSNGNLEAIYVTDSDSNASIGMKKYFVGVNSAGKVAISAKEIKEDNIGAQVLGLFTLSTGQDIWNQTNLEHHHHHH
B13: PRT-516 (protein)
chain: MITSVWTKGVTPPTDFIKGEDVFHAPYKAGQGWYDITKAFDGGDDLLCGAATAGNMLHWWFDQNKEEIEAYLKKHPEKQKIMFGDQELLDVRKVINTKDSQTNSALFNYFKDKAFPNLSARRLGVMPDLVLDMFINGYYLNVYKTQTTDVNRTYQTKDRRGGIFDAVFTRGDQSKLLTERHDLKNKTLNEISQLIKQELTEGKALGLSHTYANVRINHVINLWGADFDAEGNLEAIYVTDSDSNASIGMKKYFVGVNSAGKVAISAKEIKEDNIGAQVLGLFTLSTGQDIWNQTNLEHHHHHH

Positions count from the first letter of the chain named.

For the data set, the target named is pooled human IgG (human IgG1, 2, 3 and 4).
B1 registered an Enzyme Activity Endpoint Assay (purified): Fab′2 of 0 ng/µL, an Enzyme Activity Endpoint Assay (purified): Fc of 0 ng/µL, an Enzyme Activity Endpoint Assay (purified): IgG of 0 ng/µL and an Enzyme Activity Endpoint Assay (purified): scIgG of 0 ng/µL.

Protein B2 displayed an Enzyme Activity Endpoint Assay: Fab′2 of 821 ng/µL, an Enzyme Activity Endpoint Assay: Fc of 259 ng/µL, an Enzyme Activity Endpoint Assay: IgG of 0 ng/µL and an Enzyme Activity Endpoint Assay: scIgG of 0 ng/µL.

Consider B3, for which the Enzyme Activity Endpoint Assay (purified): Fab′2 is 399 ng/µL, the Enzyme Activity Endpoint Assay (purified): Fc came out at 309 ng/µL, the Enzyme Activity Endpoint Assay (purified): IgG was 154 ng/µL and the Enzyme Activity Endpoint Assay (purified): scIgG was determined as 298 ng/µL.

Regarding B4, the Enzyme Activity Endpoint Assay (purified): Fab′2 is 73 ng/µL, the Enzyme Activity Endpoint Assay (purified): Fc was determined as 243 ng/µL, the Enzyme Activity Endpoint Assay (purified): IgG is 166 ng/µL and the Enzyme Activity Endpoint Assay (purified): scIgG stood at 875 ng/µL.

Turning to B5, the Enzyme Activity Endpoint Assay (purified): Fab′2 was found to be 1100 ng/µL, the Enzyme Activity Endpoint Assay (purified): Fc came to 365 ng/µL, the Enzyme Activity Endpoint Assay (purified): IgG worked out at 0 ng/µL and the Enzyme Activity Endpoint Assay (purified): scIgG was 0 ng/µL.

Protein B6 yielded an Enzyme Activity Endpoint Assay (purified): Fab′2 of 450 ng/µL, an Enzyme Activity Endpoint Assay (purified): Fc of 379 ng/µL, an Enzyme Activity Endpoint Assay (purified): IgG of 138 ng/µL and an Enzyme Activity Endpoint Assay (purified): scIgG of 337 ng/µL.

Take B7: the Enzyme Activity Endpoint Assay (purified): Fab′2 came to 41 ng/µL, the Enzyme Activity Endpoint Assay (purified): Fc was 139 ng/µL, the Enzyme Activity Endpoint Assay (purified): IgG was found to be 50 ng/µL and the Enzyme Activity Endpoint Assay (purified): scIgG was determined as 248 ng/µL.

Regarding B8, the Enzyme Activity Endpoint Assay (purified): Fab′2 worked out at 0 ng/µL, the Enzyme Activity Endpoint Assay (purified): Fc is 0 ng/µL, the Enzyme Activity Endpoint Assay (purified): IgG is 0 ng/µL and the Enzyme Activity Endpoint Assay (purified): scIgG stood at 0 ng/µL.

B9 returned an Enzyme Activity Endpoint Assay (purified): Fab′2 of 0 ng/µL, an Enzyme Activity Endpoint Assay (purified): Fc of 37 ng/µL, an Enzyme Activity Endpoint Assay (purified): IgG of 0 ng/µL and an Enzyme Activity Endpoint Assay (purified): scIgG of 0 ng/µL.

With B10, the Enzyme Activity Endpoint Assay (purified): Fab′2 was found to be 1150 ng/µL, the Enzyme Activity Endpoint Assay (purified): Fc turned out to be 413 ng/µL, the Enzyme Activity Endpoint Assay (purified): IgG was found to be 0 ng/µL and the Enzyme Activity Endpoint Assay (purified): scIgG turned out to be 0 ng/µL.

Regarding B11, the Enzyme Activity Endpoint Assay: Fab′2 is 504 ng/µL, the Enzyme Activity Endpoint Assay: Fc came out at 296 ng/µL, the Enzyme Activity Endpoint Assay: IgG came out at 111 ng/µL and the Enzyme Activity Endpoint Assay: scIgG turned out to be 501 ng/µL.

As for B12, the Enzyme Activity Endpoint Assay (purified): Fab′2 amounted to 21 ng/µL, the Enzyme Activity Endpoint Assay (purified): Fc came to 26 ng/µL, the Enzyme Activity Endpoint Assay (purified): IgG worked out at 0 ng/µL and the Enzyme Activity Endpoint Assay (purified): scIgG turned out to be 0 ng/µL.

Consider B13, for which the Enzyme Activity Endpoint Assay (purified): Fab′2 came to 16 ng/µL, the Enzyme Activity Endpoint Assay (purified): Fc turned out to be 23 ng/µL, the Enzyme Activity Endpoint Assay (purified): IgG came to 0 ng/µL and the Enzyme Activity Endpoint Assay (purified): scIgG is 0 ng/µL.
